“Also recorded” adds a separate entry of the source.
Columns and labels:
[1] = system: bone marrow monocytes (BMMs); assay: Osteoclastogenesis analysis in bone marrow monocytes (TRAP staining); format: cell-based, C3 (1)-Tag mice; settings: IFN-γ 50, 100 ng/mL with M-CSF 30 ng/mL and RANKL 100 ng/mL, vs positive control
Description: Primary mouse bone marrow monocytes (BMMs) were isolated from the hind limb bones (two femurs and two tibiae) of 4 to 8 week-old C3 (1)-Tag mice. The mouse BMMs were flushed into a 15 ml tube via 8 ml of a serum-free 2 mM EDTA α-MEM medium. A Lymphocyte Separation Medium (LSM: MP Biomedicals: Catalog No. 50494) was dispensed into a new tube, 8 ml of the flushed BMMs were gently added thereon and centrifuged at 1600 rpm for 20 minutes at room temperature. The isolated BMMs were inoculated at 3×10^5 cells/well in a 48-well plate with 0.5 mL of a medium per well and incubated in α-MEM containing 10% FBS and 1% antibiotics.
BMMs in a negative control group were treated with M-CSF (30 ng/mL), BMMs in a positive control group were treated with M-CSF and RANKL (100 ng/mL), and BMMs in an experimental group were stimulated by treatment with M-CSF, RANKL, and IFN-γ (50, 100 ng/mL). On days 1, 3, 5, and 7 of culture, the medium was replaced, and each experimental group was treated with M-CSF, RANKL, and IFN-γ. After 9 days of culture, staining was performed using a TRAP staining kit (KT-008, KAMIYA biomedical company, Seattle, WA, USA) after fixing the cells with 10% formalin. For each well, TRAP-positive (TRAP^+) multinucleated cells (TRAP^+ MNC) were counted. All the experiments were independently repeated three times.

[2] = system: M6-bone cells; assay: Western blot of IFN-γ-treated cells; format: cell-based, mouse; settings: 100 ng/ml IFN-γ, 18 hours
Description: M6 and M6-bone cells were stimulated with 100 ng/ml recombinant mouse IFN-γ and cultured in a medium containing 1% FBS for 18 hours. The cells were lysed in a buffered mixture of a PRO-PREP™ protein extraction solution (iNtRON Biotechnology, 17081) and a phosphatase inhibitor cocktail (Gen DEPOT, p3200-001). Protein concentration was measured using the Bradford assay (Bio-rad, 500-0006, Hercules, CA, USA). 30 μg of the protein was separated by SDS-polyacrylamide gel electrophoresis and transferred to a PVDF membrane (10600023), and then the membrane was blocked with Tris-buffered saline containing 0.05% Tween 20 and 5% non-fat milk powder for 1 hour. The PVDF membrane was incubated overnight at 4° C. with primary antibodies. HIF1α (NB100-105, Novusbio), c-MET, Akt (Cat #9272), and p-Akt (Cat #9271) antibodies were purchased from Cell Signaling Technology (Beverly, MA, USA), and β-actin (Cat #A5316) was purchased from Sigma (Saint Louis, MO, USA). Subsequently, a horseradish peroxidase-conjugated secondary antibody was cultured at room temperature for 1 hour. Immunoreactive bands were detected with a chemiluminescent reagent (Cat #RPN2106).

B1: IFN-γ: recombinant mouse IFN-γ, key cytokine of Th1 immunity (protein, UniProt P01580 23-155, looked up)
Interferon gamma: HGTVIESLESLNNYFNSSGIDVEEKSLFLDIWRNWQKDGDMKILQSQIISFYLRLFEVLKDNQAISNNISVIESHLITTFFSNSKAKKDAFMSIAKFEVNNPQVQRQAFNELIRVVHQLLPESSLRKRKRSRC
[1]
  M-CSF and RANKL-induced osteoclastogenesis: completely inhibited osteoclastogenesis; also recorded: inhibits
[2]
  expression of c-MET and p-Akt (Western blot): decreased

Reference: patent US20250134975A1, “CANCER VACCINE COMPRISING EPITOPE OF C-MET AND USE THEREOF” (KOREA UNIVERSITY RESEARCH AND BUSINESS FOUNDATION, priority 2022, published 2025)
